In article PMC13062060, “Calcium activation mechanism of a noncanonical aromatic L-amino acid decarboxylase from psilocybin mushroom Psilocybe cubensis” (Communications Biology, 2026):

Each substance was assayed on N[C@@H](Cc1ccccc1)C(=O)O (assay: LC-MS of phenylethylamine formed, Michaelis-Menten fit). Details: 30 mM calcium acetate (activating), 50 mM Tris pH 8.0, room temperature, brackets 95% CI, also measured in 30 mM NaCl.
Format: biochemical, Psilocybe cubensis
Description: LC-MS of phenylethylamine formed, Michaelis-Menten fit on PcncAAAD (noncanonical aromatic L-amino acid decarboxylase)
“PcncAAAD (noncanonical aromatic L-amino acid decarboxylase) (Psilocybe cubensis; D825A/D931A/E824A)” was tested, and the Km was 174 [105–287] µM and the kcat was 0.41 s⁻¹.
With “PcncAAAD (noncanonical aromatic L-amino acid decarboxylase) (Psilocybe cubensis; D825A/D931A/D971A/D973A/E637A/E638A/E824A/E972A)” the Km was 586 [359–979] µM and the kcat was 0.044 s⁻¹.
With “PcncAAAD (noncanonical aromatic L-amino acid decarboxylase) (Psilocybe cubensis; D971A/D973A/E637A/E638A/E972A)” the Km was 513 [319–839] µM and the kcat was 0.073 s⁻¹.
In the case of “PcncAAAD (noncanonical aromatic L-amino acid decarboxylase) (Psilocybe cubensis)”, the Km is reported as 88 [49–154] µM and the kcat is reported as 0.51 s⁻¹.
